In publication PMC3098264, “Crystal Structure of the PAC1R Extracellular Domain Unifies a Consensus Fold for Hormone Recognition by Class B G-Protein Coupled Receptors” (PLoS ONE, 2011):

B1: un-labeled PACAP (15–31) [not stated] / MBP-PAC1R (25–140)-His6 [human] (parent complex)
chain 1: KQMAVKKYLAAVLGKRY
chain 2: CIFKKEQAMCLEKIQRANELMGFNDSSPGCPGMWDNITCWKPAHVGEMVLVSCPELFRIFNPDQDMGVVSRNCTEDGWSEPFPHYFDACGFDEYESETGDQDYYYLSVKALYTVGY

Variants of: B1
Experiment: competitive AlphaScreen; Competing peptide 150uM; residual signal after competition, higher counts = weaker competition by the mutant peptide; read off a plot

response | Variant
~26000 Photon Counts | chain 1 L13A
~2700 Photon Counts | chain 1 R16A
~17000 Photon Counts | chain 1 V5A
~2700 Photon Counts | chain 1 Y17A
~1900 Photon Counts | chain 1 Q2A
~6300 Photon Counts | chain 1 V12A
~5100 Photon Counts | chain 1 M3A
~2900 Photon Counts | chain 1 K7A
~1800 Photon Counts | chain 1 K1A
~3800 Photon Counts | chain 1 K15A
~34000 Photon Counts | chain 1 K6A
~1100 Photon Counts | chain 1 L9A
~1500 Photon Counts | chain 1 Y8A
